Experimental data: patent US20050239141A1

Assays:
[1] = target: T1, rat CD5 antigen present on rat T cells (rat) (UniProt P51882); assay: flow cytometry, blood T cells of a rat 3 h after 0.5 mg/kg i.v.
T1 sequence (looked up): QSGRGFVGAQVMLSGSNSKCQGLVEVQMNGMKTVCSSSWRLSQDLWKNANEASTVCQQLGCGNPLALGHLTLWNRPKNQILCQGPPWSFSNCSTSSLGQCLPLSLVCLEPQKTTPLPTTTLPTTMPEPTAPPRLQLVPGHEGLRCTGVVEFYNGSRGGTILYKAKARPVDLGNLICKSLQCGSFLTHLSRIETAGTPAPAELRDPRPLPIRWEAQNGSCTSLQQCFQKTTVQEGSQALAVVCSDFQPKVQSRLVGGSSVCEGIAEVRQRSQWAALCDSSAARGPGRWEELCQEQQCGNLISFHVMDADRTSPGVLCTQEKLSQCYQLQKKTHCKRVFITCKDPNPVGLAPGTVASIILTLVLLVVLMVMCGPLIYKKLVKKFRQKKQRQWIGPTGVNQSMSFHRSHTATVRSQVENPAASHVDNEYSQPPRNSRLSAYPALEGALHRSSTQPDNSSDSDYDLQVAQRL

[2] = target: T1, rat CD5 antigen present on rat T cells (rat); assay: flow cytometry, spleen T cells of a rat 3 h after 0.5 mg/kg i.v.
[3] = target: T1, rat CD5 antigen present on rat T cells (rat); assay: flow cytometry, lymph node T cells of a rat 3 h after 0.5 mg/kg i.v.
[4] = target: T1, rat CD5 antigen present on rat T cells (rat); assay: flow cytometry, blood T cells of a rat 3 h after 0.5 mg/kg i.v. (isotype matched negative control)
[5] = target: T1, rat CD5 antigen present on rat T cells (rat); assay: flow cytometry, spleen T cells of a rat 3 h after 0.5 mg/kg i.v. (isotype matched negative control)
[6] = target: T1, rat CD5 antigen present on rat T cells (rat); assay: flow cytometry, lymph node T cells of a rat 3 h after 0.5 mg/kg i.v. (isotype matched negative control)

## OX19 MoAb (antibody)
[1]
  % of CD4 cells also positive for mouse IgG1: 96.2%
  % of CD8 cells also positive for mouse IgG1: 70.2%
[2]
  % of CD4 cells also positive for mouse IgG1: 84.8%
  % of CD8 cells also positive for mouse IgG1: 73.6%
[3]
  % of CD4 cells also positive for mouse IgG1: 96.2%
  % of CD8 cells also positive for mouse IgG1: 96.8%

B1: MoAb H65 (antibody, V domains shown)
VH: QIQLVQSGPELKKPGETVKISCKASGYTFTNYGMNWVKQAPGKGLRWMGWINTHTGEPTYADDFKGRFAFSLETSASTAYLQINNLKNEDTATYFCTRRGYDWYFDVWGAGTTVTVSS
VL: DIKMTQSPSSMYASLGERVTITCKASQDINSYLSWFQQKPGKSPKTLIYRANRLVDGVPSRFSGSGSGQDYSLTISSLDYEDMGIYYCQQYDESPWTFGGGTKLEIK
[4]
  % of CD4 cells also positive for mouse IgG1: 6.7%
  % of CD8 cells also positive for mouse IgG1: 5.7%
[5]
  % of CD4 cells also positive for mouse IgG1: 14.8%
  % of CD8 cells also positive for mouse IgG1: 20.6%
[6]
  % of CD4 cells also positive for mouse IgG1: 4.2%
  % of CD8 cells also positive for mouse IgG1: 6.5%
